This note sets out measurements from patent CN117866903A.

This assay addresses T1, 生物素化的IL-17A of the IL-17A[Biotinylated] : IL-17RA Inhibitor Screening ELISA Kit (ACROBiosystems, EP-139) (UniProt Q16552).
T1 sequence (biotinylated, looked up): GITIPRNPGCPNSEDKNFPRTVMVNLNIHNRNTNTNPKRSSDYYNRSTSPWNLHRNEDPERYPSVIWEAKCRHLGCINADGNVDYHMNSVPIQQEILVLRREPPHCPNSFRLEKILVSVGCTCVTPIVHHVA
The assay can be described thus: competition ELISA kit (ACROBiosystems EP-139): IL-17RA coated, biotinylated IL-17A, culture supernatant diluted 5-fold.

B1: IL-17Nb secreted by C3-H10-MSC (1-C3-3-H10: Fc融合蛋白, VHH-(GGGGS)3-VHH-IgG4 Fc) (Fc fusion)
chain: DVQLVESGGGLVEPGESLRLSCAAPGEDLGYYAIAWFRQAPGKEREVVSCVTSSGSSTNYLSSVKDRFTISIDNAKNTVYLQMNSLKPEDTAVYYCASTILLCSDYISAFGTWGQGTQVTVASGGGGSGGGGSGGGGSEVQLVESGGGLVQPGGSLRLSCAASGFSIHIYAMGWYRQAPGKQRELVATITRGGVTNNADSVKGRFTISRDNAKNTAYLQMNSLKPEDTAVYYCNAGGTNGGYWGQGTQVTVSSAPEFLGGPSVFLFPPKPKDTLMISRTPEVTCVVVDVSQEDPEVQFNWYVDGVEVHNAKTKPREEQFNSTYRVVSVLTVLHQDWLNGKEYKCKVSNKGLPSSIEKTISKAKGQPREPQVYTLPPSQEEMTKNQVSLTCLVKGFYPSDIAVEWESNGQPENNYKTTPPVLDSDGSFFLYSRLTVDKSRWQEGNVFSCSVMHEALHNHYTQKSLSLSLGK
In turn, B1 returned a 结合抑制率 of 58%.
